According to US6323177, “Interaction of reelin with very low density lipoprotein (VLDL) receptor for screening and therapies” (St. Jude Children's Research Hospital, dated 2001):

Biological target: Reelin (full length, expressed from pCr1 in 293T cells, conditioned medium) (mouse)
Assay: cell binding assay: 293T cells with or without VLDL receptor incubated with Reelin conditioned medium, washed, lysed, Western blot with G10
Experimental: Reelin-VLDL receptor binding assay. 293T cells transfected with or without the VLDL receptor are washed in phosphate buffer saline (PBS) containing divalent cations and distributed into Eppendorf tubes (approximately 10^6 cells/sample). For Reelin binding assays, cells are incubated with conditioned medium containing 20–100 ng of Reelin for 30 min to 2 h at 4° C. or room temperature. Cells are then washed again with PBS and solubilized in […] of TxB buffer (150 mM NaCl, 50 mM Tris-Cl pH7.5, 1% Triton-X, 1 mM EDTA) supplemented with 0.1 mg/ml Aprotinin, with 0.1 mg/m Leupeptin, 20 mM Sodium Fluoride, and 1 mM Sodium Orthovanadate. Cell extracts are clarified by centrifugation at 13,000×g for 10 min at 4° C. and subjected to Western blot analysis to reveal the presence of Reelin retained by the VLDL receptor.
Western blot analysis. Ten µl of cell extract per lane are analyzed by SDS-PAGE on 4–12% minigels (Novex). Proteins are transferred to nitrocellulose membranes and blocked in 3% milk in Tris buffer saline (TBS) for 1 h at room temperature. Proteins bound to the membranes are incubated at 4° C. overnight in antibody diluted in 0.3% milk-TBS supplemented with 0.1% Tween (TBST). Ascites fluids containing the mouse monoclonal G10 antibody (de Bergeyck et al., J. Neurosci. Methods, 82:17–24, 1998) are used at a 1:1000 dilution to detect Reelin. […]

binding result: binds
B1: human very low density lipoprotein (VLDL) receptor, expressed on transfected 293T cells (receptor)
chain: not shown
